{"source": "paper PMC3511584", "key": {"[1]": {"molecular_target": "circularly permuted RoCBM21 (CP90) (Rhizopus oryzae)", "assay": "AUC; data not shown: apoCP90 at pH 2.5, 3, 4, 5, 6, 7, 8, 9 and 10, no ligand"}, "[2]": {"molecular_target": "circularly permuted RoCBM21 (CP90) (Rhizopus oryzae)", "assay": "AUC; sedimentation velocity, no ligand, protein around 1.0 mg/ml, 40,000 rpm, 25°C, absorbance at 280 nm, SEDFIT"}}}
{"substance": "circularly permuted RoCBM21 (CP90) (domain or fragment)", "values": [{"measurement": "stoichiometry N", "setting": "[1]", "value": 2}, {"measurement": "stoichiometry N", "setting": "[2]", "value": 2}]}
